Test results as given in patent US20250137008A1 (UNIVERSITY OF GLASGOW, published 2025).

B5: full-length GORK channel (GORK-Cub bait fusion) (other)
chain: MGRLRRRQEIIDHEEEESNDDVSSRRGKLSLAETFRWLDSSEHRRIETDGHNDYKYIIHPKNRWYKAWEMFILVWAIYSSLFTPMEFGFFRGLPERLFVLDIVGQIAFLVDIVLQFFVAYRDTQSYRTVYKPTRIAFRYLKSHFLMDFIGCFPWDLIYKASGKHELVRYLLWIRLFRVRKVVEFFQRLEKDTRINYLFTRILKLLFVEVYCTHTAACIFYYLATTLPPEQEGYTWIGSLKLGDYSYENFREIDLWKRYTTALYFAIVTMATVGYGDIHAVNLREMIFVMIYVSFDMVLGAYLIGNVTALIVKGSNTERFRDKMNDLISFMNRKKLGRDLRSQITGHVRLQYDSHYTDTVMLQDIPASIRAKIAQLLYLPYIKKVPLFKGCSTEFINQIVIRLHEEYFLPGEVITEQGNVVDHLYFVCEGLLEALVTKTDGSEESVTLLGPHTSFGDISIICNISQPFTVRVCELCHLLRLDKQSFSNILEIYFHDGRTILNNIMEEKESNDRIKKLESDIVIHIGKQEAELALKVNSAAFQGDFYQLKSLIRSGADPNKTDYDGRSPLHLAACRGYEDITLFLIQEGVDVNLKDKFGHTPLFEAVKAGQEGVIGLLVKEGASFNLEDSGNFLCTTVAKGDSDFLKRLLSSGMNPNSEDYDHRTPLHVAASEGLFLMAKMLVEAGASVISKDRWGNSPLDEARLCGNKKLIKLLEDVKNAQSSIYPSSLRELQEERIERRKCTVFPFHPQEAKEERSRKHGVVVWVPSNLEKLIVTAAKELGLSDGASFVLLSEDQGRITDIDMISDGHKLYMISDTTDQT
notes: Full-length channel expressed in yeast as a Cub bait fusion (mbSUS) and in vivo as an rBiFC partner; also called full-length GORK channel Y-Cub fusion; Guard cell Outward Rectifying Potassium (K+) channel

Key:
[1] = molecular target: the molecule itself; test: gel filtration of soluble N-termini (self-association)
[2] = molecular target: B5; test: rBiFC in vivo, confocal imaging
[3] = molecular target: B5; test: mbSUS, GORK-Cub bait
[4] = molecular target: T1, full-length KAT1 (UniProt Q39128 1-677, limits assumed); test: mbSUS, GORK-Cub bait
T1 construct: whole, on cells; Nub-X prey in mbSUS in yeast

[5] = molecular target: T2, KAT1 voltage sensor domain (kVSD) (UniProt Q39128 1-200, limits assumed); test: mbSUS, GORK-Cub bait
T2 construct: domain: voltage sensor domain (VSD); Nub-X prey in mbSUS; rBiFC partner; also called KAT1 VSD; VSD of KAT1
T2 sequence (looked up): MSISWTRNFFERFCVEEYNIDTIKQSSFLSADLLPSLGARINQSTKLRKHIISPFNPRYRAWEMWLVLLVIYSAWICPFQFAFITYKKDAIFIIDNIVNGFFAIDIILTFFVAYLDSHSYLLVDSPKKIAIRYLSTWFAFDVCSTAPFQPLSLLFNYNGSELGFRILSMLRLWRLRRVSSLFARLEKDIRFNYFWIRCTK

B1: kVSD N-terminus (soluble) (other, UniProt Q39128 1-63, looked up)
chain: MSISWTRNFFERFCVEEYNIDTIKQSSFLSADLLPSLGARINQSTKLRKHIISPFNPRYRAWE
notes: domain: cytosolic N-terminus; Gel filtration construct; also called kVSD N-termini; KAT1 N-terminus
[1]
  binding result: no binding

B2: gVSD^NP (other)
chain: MGRLRRRQEIIDHEEEESNDDVSSRRGKLSLAKTFRWLKSSKKRRIKTKGKNKYKYIIKPKNRWYKAWEMFILVWAIYSSLFTPMEFGFFRGLPERLFVLDIVGQIAFLVDIVLQFFVAYRDTQTYRTVYKPTRIAFRYLKSHFLMDFIGCFPWDLIYKASGKHELVRYLLWIRLFRVRKVVEFFQRLEKDTRINYLFTRILK
notes: All negatively-charged amino acids (Asp, Glu) of the N-terminal charged domains replaced with Lys
[2]
  binding result: no binding

B3: gVSD^PN (other)
chain: MGRLRRRQEIIDHEEEESNDDVSSDDGDLSLAETFDWLDSSEDDDIETDGDNDYDYIIDPKNRWYKAWEMFILVWAIYSSLFTPMEFGFFRGLPERLFVLDIVGQIAFLVDIVLQFFVAYRDTQTYRTVYKPTRIAFRYLKSHFLMDFIGCFPWDLIYKASGKHELVRYLLWIRLFRVRKVVEFFQRLEKDTRINYLFTRILK
notes: All positively-charged residues of the N-terminal charged domains replaced with negatively-charged residues
[3]
  binding result: no binding

B4: gVSD^NP N-terminus (soluble) (other)
chain: MGRLRRRQEIIDHEEEESNDDVSSRRGKLSLAKTFRWLKSSKKRRIKTKGKNKYKYIIKPKNRWYKAWE
notes: also called gVSDNP N-termini
[1]
  binding result: no binding

## B5
[4]
  binding result: no binding
[5]
  binding result: no binding
